Data: the supplement of paper PMC10567573

B1: TRIM15 (parent)
chain: QSSGKILLCPLCQEEEQAETPMAP
B2: TRAF3IP2 (parent)
chain: PRPPSNPPARGTLKTSNLPEELRK

Variants of: B1
Test: protein stability index of a GFP-peptide fusion (GPS, HEK-293T) (PSI 1-6); higher = more stable
Conditions: c terminus: a fixed tail appended
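Also: lentivirally expressed fusions sorted by FACS into six bins by GFP to DsRed ratio, PSI derived from sequencing read proportions per bin multiplied by bin number.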

Point of comparison: QSSGKILLCPLCQEEEPAETPMAP, protein stability index 4.21. Against it:
- QSSGKILLCPLCQEEQQAETPMAP — lower, 1.72
- QSSGKILLCPLCQEENQAETPMAP — lower, 3.1
- QSSGKILLCPLCQEECQAETPMAP — lower, 2.55
- QSSGKILLCPLCQEEVQAETPMAP — lower, 2.01
- QSSGKILLCPLCQEEMQAETPMAP — lower, 2.34
- QSSGKILLCPLCQEEPQAETPMAP — lower, 3.28
- QSSGKILLCPLCQEEFQAETPMAP — lower, 2.23
- QSSGKILLCPLCQEEGQAETPMAP — lower, 2.78
- QSSGKILLCPLCQEEYQAETPMAP — lower, 3.08
- QSSGKILLCPLCQEEIQAETPMAP — lower, 2.69
- QSSGKILLCPLCQEEKQAETPMAP — lower, 3.08
- QSSGKILLCPLCQEEWQAETPMAP — lower, 2.71
- QSSGKILLCPLCQEESQAETPMAP — lower, 2.59
- QSSGKILLCPLCQEELQAETPMAP — lower, 2.06
- QSSGKILLCPLCQEETQAETPMAP — lower, 2.61
- QSSGKILLCPLCQEEDQAETPMAP — lower, 3.31
- QSSGKILLCPLCQEEEQAEAPMAP — lower, 3.65
- QSSGKILLCPLCQEEEQAERPMAP — lower, 3.07
- QSSGKILLCPLCQEEEQAESPMAP — lower, 3.5
- QSSGKILLCPLCQEEEQAEQPMAP — lower, 3.5
- QSSGKILLCPLCQEEEQAEWPMAP — lower, 2.16
- QSSGKILLCPLCQEEEQAEDPMAP — lower, 3.66
- QSSGKILLCPLCQEEEQAEYPMAP — lower, 2.89
- QSSGKILLCPLCQEEEQAELPMAP — lower, 3.8
- QSSGKILLCPLCQEEEQAEIPMAP — lower, 3.5
- QSSGKILLCPLCQEEEQAECPMAP — lower, 3.54
- QSSGKILLCPLCQEEEQAENPMAP — lower, 3.4
- QSSGKILLCPLCQEEEQAEKPMAP — lower, 4
- QSSGKILLCPLCQEEEQAEEPMAP — lower, 3.92
- QSSGKILLCPLCQEEEQAEFPMAP — lower, 2.84
- QSSGKILLCPLCQEEEQAEPPMAP — lower, 3.16
- QSSGKILLCPLCQEEEQAEGPMAP — lower, 2.49
- QSSGKILLCPLCQEEEQAEHPMAP — lower, 3.46
- QSSGKILLCPLCQEEEQAWTPMAP — lower, 1.52
- QSSGKILLCPLCQEEEQASTPMAP — lower, 2.51
- QSSGKILLCPLCQEEEQAKTPMAP — lower, 3.94
- QSSGKILLCPLCQEEEQAFTPMAP — lower, 2.06
- QSSGKILLCPLCQEEEQAQTPMAP — lower, 2.61
- QSSGKILLCPLCQEEEQACTPMAP — lower, 2
- QSSGKILLCPLCQEEEQAMTPMAP — lower, 2.19
- QSSGKILLCPLCQEEEQAPTPMAP — lower, 2.34
- QSSGKILLCPLCQEEEQARTPMAP — lower, 2.99
- QSSGKILLCPLCQEEEQAGTPMAP — lower, 3.09
- QSSGKILLCPLCQEEEQAATPMAP — lower, 3.12
- QSSGKILLCPLCQEEEQATTPMAP — lower, 3.09
- QSSGKILLCPLCQEEEQAITPMAP — lower, 2.77
- QSSGKILLCPLCQEEEQANTPMAP — lower, 2.87
- QSSGKILLCPLCQEEEQAYTPMAP — lower, 2.96
- QSSGKILLCPLCQEEEQAETPMNP — lower, 3.5
- QSSGKILLCPLCQEEEQAETPMIP — lower, 2.86
- QSSGKILLCPLCQEEEQAETPMVP — lower, 4.12
- QSSGKILLCPLCQEEEQAETPMGP — lower, 3.52
- QSSGKILLCPLCQEEEQAETPMRP — lower, 2.6
- QSSGKILLCPLCQEEEQAETPMTP — lower, 3.9
- QSSGKILLCPLCQEEEQAETPMDP — lower, 3.96
- QSSGKILLCPLCQEEEQAETPMFP — lower, 3.25
- QSSGKILLCPLCQEEEQAETPMCP — lower, 3.71
- QSSGKILLCPLCQEEEQAETPMSP — lower, 3.86
- QSSGKILLCPLCQEEEQAETPMWP — lower, 2.91
- QSSGKILLCPLCQEEEQAETPMYP — lower, 2.94
- QSSGKILLCPLCQEEEQAETPMLP — lower, 2.97
- QSSGKILLCPLCQEEEQAETPMMP — lower, 3.69
- QSSGKILLCPLCQEEEQAETPMEP — higher, 4.61
- QSSGKILLCPLCQEEEQAETPMQP — lower, 3.21
- QSSGKILLCPLCQEEEQAETPMKP — lower, 3.63
- QSSGKILLCPLCQEEEQAETPMHP — lower, 3.67
- QSSGKILLCPLCQEWEQAETPMAP — lower, 1.65
- QSSGKILLCPLCQEYEQAETPMAP — lower, 2.53
- QSSGKILLCPLCQEEEMAETPMAP — lower, 3.02
- QSSGKILLCPLCQEEEVAETPMAP — lower, 2.82
- QSSGKILLCPLCQEEEDAETPMAP — lower, 3.38
- QSSGKILLCPLCQEEEKAETPMAP — lower, 3.29
- QSSGKILLCPLCQEEEFAETPMAP — lower, 2.55
- QSSGKILLCPLCQEEEAAETPMAP — lower, 2.98
- QSSGKILLCPLCQEEECAETPMAP — lower, 2.23
- QSSGKILLCPLCQEEENAETPMAP — lower, 3.49
- QSSGKILLCPLCQEEERAETPMAP — lower, 2.76
- QSSGKILLCPLCQEEEIAETPMAP — lower, 2.88
- QSSGKILLCPLCQEEEGAETPMAP — lower, 3.74
- QSSGKILLCPLCQEEESAETPMAP — lower, 3.67
- QSSGKILLCPLCQEEEEAETPMAP — lower, 2.95
- QSSGKILLCPLCQEEETAETPMAP — lower, 3.63
- QSSGKILLCPLCQEEEYAETPMAP — lower, 2.87
- QSSGKILLCPLCQEEEHAETPMAP — lower, 3.05
- QSSGKILLCPLCQEEEQDETPMAP — lower, 3.76
- QSSGKILLCPLCQEEEQIETPMAP — lower, 3.98
- QSSGKILLCPLCQEEEQNETPMAP — lower, 3.44
- QSSGKILLCPLCQEEEQHETPMAP — lower, 3.29
- QSSGKILLCPLCQEEEQPETPMAP — lower, 4.04
- QSSGKILLCPLCQEEEQMETPMAP — lower, 3.1
- QSSGKILLCPLCQEEEQEETPMAP — lower, 3.34
- QSSGKILLCPLCQEEEQSETPMAP — lower, 3.74
- QSSGKILLCPLCQEEEQGETPMAP — lower, 2.73
- QSSGKILLCPLCQEEEQTETPMAP — lower, 3.61
- QSSGKILLCPLCQEEEQFETPMAP — lower, 2.19
- QSSGKILLCPLCQEEEQYETPMAP — lower, 2.89
- QSSGKILLCPLCQEEEQLETPMAP — lower, 3.25
- QSSGKILLCPLCQEEEQCETPMAP — lower, 3.33
- QSSGKILLCPLCQEEEQAETPYAP — lower, 3.08
- QSSGKILLCPLCQEEEQAETPAAP — lower, 3.99
- QSSGKILLCPLCQEEEQAETPDAP — lower, 4.14
- QSSGKILLCPLCQEEEQAETPGAP — higher, 4.22
- QSSGKILLCPLCQEEEQAETPIAP — lower, 3.45
- QSSGKILLCPLCQEEEQAETPLAP — higher, 4.28
- QSSGKILLCPLCQEEEQAETPVAP — lower, 2.28
- QSSGKILLCPLCQEEEQAETPEAP — higher, 4.34
- QSSGKILLCPLCQEEEQAETPCAP — higher, 5.56
- QSSGKILLCPLCQEEEQAETPTAP — higher, 4.48
- QSSGKILLCPLCQEEEQAETPNAP — lower, 3.52
- QSSGKILLCPLCQEEEQAETPKAP — lower, 3.16
- QSSGKILLCPLCQEEEQAETPFAP — lower, 2.86
- QSSGKILLCPLCQEEEQAETIMAP — lower, 2.88
- QSSGKILLCPLCQEEEQAETEMAP — lower, 3.18
- QSSGKILLCPLCQEEEQAETQMAP — lower, 3.39
- QSSGKILLCPLCQEEEQAETAMAP — lower, 3
- QSSGKILLCPLCQEEEQAETTMAP — lower, 3.16
- QSSGKILLCPLCQEEEQAETFMAP — lower, 3.13
- QSSGKILLCPLCQEEEQAETKMAP — lower, 2.43
- QSSGKILLCPLCQEEEQAETLMAP — lower, 2.86
- QSSGKILLCPLCQEEEQAETDMAP — lower, 3.93
- QSSGKILLCPLCQEEEQAETVMAP — lower, 3.73
- QSSGKILLCPLCQEEEQAETSMAP — lower, 3.76
- QSSGKILLCPLCQEEEQAETNMAP — lower, 3.85
- QSSGKILLCPLCQEEEQAETCMAP — lower, 3.94
- QSSGKILLCPLCQEEEQAETHMAP — lower, 2.98
- QSSGKILLCPLCQEEEQAETRMAP — lower, 1.83
- QSSGKILLCPLCQEEEQAETGMAP — lower, 3.19
- QSSGKILLCPLCQEEEQAETMMAP — lower, 2.45
- QSSGKILLCPLCQEEEQAETYMAP — lower, 2.68
- QSSGKILLCPLCQEEEQAETPMAM — lower, 3.31
- QSSGKILLCPLCQEEEQAETPMAA — lower, 4
- QSSGKILLCPLCQEEEQAETPMAE — higher, 4.29
- QSSGKILLCPLCQEEEQAETPMAH — lower, 3.88
- QSSGKILLCPLCQEEEQAETPMAG — lower, 3.81
- QSSGKILLCPLCQEEEQAETPMAI — lower, 3.85
- QSSGKILLCPLCQEEEQAETPMAF — lower, 3.25
- QSSGKILLCPLCQEEEQAETPMAR — lower, 1.71
- QSSGKILLCPLCQEEEQAETPMAY — lower, 2.68
- QSSGKILLCPLCQEEEQAETPMAS — lower, 3.53
- QSSGKILLCPLCQEEEQAETPMAC — lower, 2.47
- QSSGKILLCPLCQEEEQAETPMAT — lower, 3.48
- QSSGKILLCPLCQEEEQAETPMAK — lower, 3.17
- QSSGKILLCPLCQEEEQAETPMAL — lower, 3.09
- QSSGKILLCPLCQEEEQAETPMAD — lower, 3.79
- QSSGKILLCPLCQEEEQAETPMAQ — lower, 3.41

Variants of: B2
Test: as above
Conditions: c terminus: a fixed tail appended

Point of comparison: RRPPSNPPARGTLKTSNLPEELRK, protein stability index 4.44. Against it:
- CRPPSNPPARGTLKTSNLPEELRK — higher, 4.46
- KRPPSNPPARGTLKTSNLPEELRK — higher, 4.63
- VRPPSNPPARGTLKTSNLPEELRK — lower, 4.42
- ARPPSNPPARGTLKTSNLPEELRK — higher, 4.49
- NRPPSNPPARGTLKTSNLPEELRK — higher, 4.59
- IRPPSNPPARGTLKTSNLPEELRK — higher, 4.59
- ERPPSNPPARGTLKTSNLPEELRK — lower, 4.43
- YRPPSNPPARGTLKTSNLPEELRK — higher, 4.46
- HRPPSNPPARGTLKTSNLPEELRK — higher, 4.64
- LRPPSNPPARGTLKTSNLPEELRK — higher, 4.67
- WRPPSNPPARGTLKTSNLPEELRK — higher, 4.76
- FRPPSNPPARGTLKTSNLPEELRK — lower, 4.31
- MRPPSNPPARGTLKTSNLPEELRK — higher, 5.07
- SRPPSNPPARGTLKTSNLPEELRK — higher, 4.62
- TRPPSNPPARGTLKTSNLPEELRK — higher, 4.88
- GRPPSNPPARGTLKTSNLPEELRK — higher, 4.89
- QRPPSNPPARGTLKTSNLPEELRK — higher, 4.74
- DRPPSNPPARGTLKTSNLPEELRK — higher, 4.6
- PVPPSNPPARGTLKTSNLPEELRK — higher, 4.63
- PSPPSNPPARGTLKTSNLPEELRK — higher, 5.25
- PCPPSNPPARGTLKTSNLPEELRK — higher, 5.19
- PLPPSNPPARGTLKTSNLPEELRK — lower, 4.2
- PQPPSNPPARGTLKTSNLPEELRK — higher, 4.59
- PMPPSNPPARGTLKTSNLPEELRK — higher, 5.08
- PGPPSNPPARGTLKTSNLPEELRK — higher, 5.12
- PWPPSNPPARGTLKTSNLPEELRK — higher, 4.85
- PEPPSNPPARGTLKTSNLPEELRK — higher, 4.85
- PKPPSNPPARGTLKTSNLPEELRK — higher, 4.56
- PFPPSNPPARGTLKTSNLPEELRK — higher, 5.09
- PRDPSNPPARGTLKTSNLPEELRK — higher, 5.07
- PRMPSNPPARGTLKTSNLPEELRK — lower, 4.42
- PREPSNPPARGTLKTSNLPEELRK — higher, 5.35
- PRHPSNPPARGTLKTSNLPEELRK — lower, 4.02
- PRLPSNPPARGTLKTSNLPEELRK — higher, 4.5
- PRGPSNPPARGTLKTSNLPEELRK — higher, 4.82
- PRFPSNPPARGTLKTSNLPEELRK — lower, 4.13
- PRCPSNPPARGTLKTSNLPEELRK — higher, 5.15
- PRIPSNPPARGTLKTSNLPEELRK — higher, 5.05
- PRAPSNPPARGTLKTSNLPEELRK — higher, 5.13
- PRNPSNPPARGTLKTSNLPEELRK — lower, 4.29
- PRKPSNPPARGTLKTSNLPEELRK — higher, 4.88
